Columns and labels:
Assay in all cases: SPR (Biacore), fusion protein captured on chip, human apical domain TfR injected, steady-state fit
ETV:GAA Fusion 1 = target: T1, ETV:GAA Fusion 1 (human, UniProt P0DOX5 223-449 = IgG part)
T1 construct: Heterodimer of the two chains; also called N-terminal monozyme GAA-Fc fusion protein
Protocol: (§1) To determine whether GAA-Fc fusion proteins with engineered TfR binding affects the ability of the modified Fc domain to interact with human TfR, the affinity of ETV:GAA fusion proteins (Example 1) for human TfR was assessed using a Biacore™ surface plasmon resonance assay. Biacore™ Series S CM5 sensor chips were immobilized with anti-human Fab (human Fab capture kit from GE Healthcare). Five (5) μg/mL of the GAA-Fc fusion proteins were captured for 1 minute on each flow cell and serial 3-fold dilutions of human apical domain TfR were injected at a flow rate of 30 μL/min. Each sample was analyzed with a 3-minute association and a 3-minute dissociation. After each injection, the chip was regenerated using 10 mM glycine-HCl (pH 2.1). Binding response was corrected by subtracting the RU from a flow cell capturing an irrelevant IgG at similar density. Steady-state affinities were obtained by fitting the response at equilibrium against the concentration using Biacore™ T200 Evaluation Software v3.1.

ETV:GAA Fusion 2 = target: T2, ETV:GAA Fusion 2 (human, UniProt P0DOX5 223-449 = IgG part)
T2 construct: Heterodimer of the two chains; also called N-terminal monozyme GAA-Fc fusion protein
Protocol: as §1

ETV:GAA Fusion 4 = target: T3, ETV:GAA Fusion 4 (human, UniProt P0DOX5 223-449 = IgG part)
T3 construct: Heterodimer of the two chains; also called C-terminal monozyme GAA-Fc fusion protein
Protocol: as §1

ETV:GAA Fusion 3 = target: T4, ETV:GAA Fusion 3 (human, UniProt P0DOX5 223-449 = IgG part)
T4 construct: Heterodimer of the two chains; also called C-terminal monozyme GAA-Fc fusion protein
Protocol: as §1

Kd (ETV:GAA Fusion 1): 0.251 µM
Kd (ETV:GAA Fusion 2): 0.26 µM
Kd (ETV:GAA Fusion 4): 0.271 µM
Kd (ETV:GAA Fusion 3): 0.282 µM
B1: human apical domain TfR (receptor)
chain: NSVIIVDKNGRLVYLVENPGGYVAYSKAATVTGKLVHANFGTKKDFEDLYTPVNGSIVIVRAGKITFAEKVANAESLNAIGVLIYMDQTKFPIVNAELSFFGHAHLGTGDPYTPGFPSFNHTQFPPSRSSGLPNIPVQTISRAAAEKLFGNMEGDCPSDWKTDSTCRMVTSESKNVKLTVS
notes: also called human TfR; huTfR
